Data on 1 protein can be found in patent US20020110883.

For this data set, the target named is microtubules.

B1: Kip3A 353 protein (protein)
chain: MAVEDSTLQVVVRVRPPTPRELDSQRRPVVQVVDERVLVFNPEEPDGGFPGLKWGGTHDGPKKKGKDLTFVFDRVFGEAATQQDVFQHTTHSVLDSFLQGYNCSVFAYGATGAGKTHTMLGREGDPGIMYLTTVELYRRLEARQQEKHFEVLISYQEVYNEQIHDLLEPKGPLAIREDPDKGVVVQGLSFHQPASAEQLLEILTRGNRNRTQHPTDANATSSRSHAIFQIFVKQQDRVPGLTQAVQVAKMSLIDLAGSERASSTHAKGERLREGANINRSLLALINVLNALADAKGRKTHVPYRDSKLTRLLKDSLGGNCRTVMIAAISPSSLTYEDTYNTLKYADRAKEIRLKGNSKLEGKPIPNPLLGLDSTRTGHHHHHH
B1: the “Km for microtubule stimulation (coupled PK/LDH ATPase assay, Michaelis-Menten fit)” value is given as “Km for microtubule stimulation of 4.6 ug/ml”; the “Vmax of microtubule-stimulated ATPase (coupled PK/LDH ATPase assay, Michaelis-Menten fit)” value is reported as “Vmax 0.85 uM ADP/s”; the “kcat of microtubule-stimulated ATPase (from Vmax)” value is “corresponds to a kcat value of 15s^-”.
